# Reference: patent US20040167074A1, “Therapeutic applications of mFLINT polypeptides” (priority 1998, published 2004)
# How the values were obtained:
# TNFα = target: T1, TNFα (Homo sapiens, UniProt P01375); experiment: Dot blot binding of mFLINT to TNF ligands
# T1 construct: purchased
# BALB/c mice = experiment: LPS/galactosamine liver damage and sepsis model, survival; format: in vivo, mouse; settings: for survival of mice: FIG. 5, mFLINT 200 μg i.v.
# Protocol: Specifically, the activity of the polypeptides of the present invention against acute inflammation and apoptosis was determined using the following procedure. Briefly, BALB/c mice (Harlan) per each experimental group were given intravenous injections (the lateral tail vein) of 6 mg of D(+)-Galactosamine (Sigma, 39F-0539) in 100 μl of PBS (GIBCO-BRL) and 3 μg of Lipopolysaccharide B E. coli 026:B6 (LPS) (Difco, 3920-25-2) in 100 μl of PBS. The LPS was administered, via i.v. injection, 5 minutes after the galactosamine, which was administered i.v. […] C. F. et al J. Immunol. 1989. 142: 3884), and Anti-mouse Fas Ligand (500 μg, PharMingen, M024301) at 0, 2, 4, 6 hour-point respectively. The survival rates of the mice were determined 24 and 48 hours after LPS injection.
# TRAIL = target: T2, TRAIL (Homo sapiens, UniProt P50591); experiment: Dot blot binding of mFLINT to TNF ligands
# T2 construct: purchased RnD Systems
# T2 sequence (P50591 114-281 limits assumed, species assumed): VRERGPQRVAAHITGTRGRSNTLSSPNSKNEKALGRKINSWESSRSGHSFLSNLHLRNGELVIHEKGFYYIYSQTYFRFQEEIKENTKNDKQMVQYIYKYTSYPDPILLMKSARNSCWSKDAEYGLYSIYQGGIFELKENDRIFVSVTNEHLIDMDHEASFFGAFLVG
# Protocol: (§1) Dot blot experiment was performed to scan known TNF ligands that are commercially available TRAIL and FasL for interaction with mFLINT.
# (§2) TRAIL (RnD Systems) and FasL (Kamiya Biomedical Company) were spotted on a nitrocellulose paper and incubated with purified mFLINT-Flag. mFLINT was washed away and binding mFLINT was detected using anti Flag antibody. Both OPG2Fc and mFLINT-Flag were overexpressed and purified according the examples above. […] The nitrocellulose paper was subsequently mixed with the cell lysate containing FasL-Myc, and further incubated on a rotator for 1 hour at room temperature. Secondary and tertiary incubations were performed with anti-myc antibody and anti-mouse IgG-HRP for 1 hour and 30 minutes respectively.
# FasL = target: T3, FasL (Homo sapiens, UniProt P48023); experiment: Dot blot binding of mFLINT to TNF ligands; settings: chemiluminescence detection
# T3 construct: made in house
# T3 sequence (P48023 1-281): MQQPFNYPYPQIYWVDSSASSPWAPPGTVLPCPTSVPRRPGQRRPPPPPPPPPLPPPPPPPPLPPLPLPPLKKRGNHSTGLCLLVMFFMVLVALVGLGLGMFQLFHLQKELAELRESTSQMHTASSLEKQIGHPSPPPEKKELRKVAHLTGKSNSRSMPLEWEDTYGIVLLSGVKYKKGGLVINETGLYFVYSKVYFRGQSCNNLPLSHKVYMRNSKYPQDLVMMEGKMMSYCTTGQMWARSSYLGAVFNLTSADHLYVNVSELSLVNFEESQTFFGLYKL
# Protocol: as §1, §2
# TNFβ = target: T4, TNFβ (Homo sapiens, UniProt P01374); experiment: Dot blot binding of mFLINT to TNF ligands
# T4 construct: purchased
# T4 sequence (P01374 35-205): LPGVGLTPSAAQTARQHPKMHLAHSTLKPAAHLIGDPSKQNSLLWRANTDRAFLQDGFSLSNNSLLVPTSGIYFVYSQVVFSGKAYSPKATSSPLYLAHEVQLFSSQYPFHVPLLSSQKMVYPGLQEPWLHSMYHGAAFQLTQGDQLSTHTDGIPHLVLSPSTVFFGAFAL
# [1] = tested on: bone marrow progenitor cells; experiment: CFU assay of bone marrow cells expanded in vitro with SCF and IL-6; format: cell-based, mouse; settings: FIG. 9, mFLINT 1 ug/ml, 3 days with SCF and IL-6
# Protocol: A—Bone marrow cells from irradiated mice—This experiment was designed to determine whether mFLINT could improve the recovery of murine hematopoietic progenitor cells from irradiation, by forcing in vitro expansion with hematopoietic cytokines. Mice were injected with 3 mg of 5-flouro-uracil, i.p., and four days later, femurs were removed and flushed to isolate bone marrow (BM) cells. 1×10^6 BM cells were seeded in each well of a 24 well tray in triplicate in Iscoves modified dulbeccos media (IMDM)+10% FBS and were stimulated for 3 days with the cytokines stem cell factor (SCF) and IL-6, in the presence or absence of mFLINT (1 ug/ml). After a 3-day in vitro expansion period, 5×10^3 cells were plated out in triplicate for the CFU assay.
# TRANCE = target: T5, TRANCE (Homo sapiens, UniProt O14788); experiment: Dot blot binding of mFLINT to TNF ligands
# T5 construct: purchased
# T5 sequence (O14788 140-317 limits assumed): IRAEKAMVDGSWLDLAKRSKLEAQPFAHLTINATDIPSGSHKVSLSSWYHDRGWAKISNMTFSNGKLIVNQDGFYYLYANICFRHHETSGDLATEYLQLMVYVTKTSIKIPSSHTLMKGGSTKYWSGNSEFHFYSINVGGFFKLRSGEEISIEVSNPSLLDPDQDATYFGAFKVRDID
# B16 melanoma cells = experiment: B16 melanoma subcutaneous tumor growth; format: in vivo; settings: days 4-13
# Protocol: Tumor response was monitored by tumor volume measurements as determined by caliper measurements of two dimensions of the tumors on days 4, 8, 11, 17, 21, 25, 30 and 34. Tumor volume was calculated as a hemi-ellipsoid. The animals were weighed on the same schedule described above.
# T1 sequence (P01375 77-233 limits assumed, species assumed): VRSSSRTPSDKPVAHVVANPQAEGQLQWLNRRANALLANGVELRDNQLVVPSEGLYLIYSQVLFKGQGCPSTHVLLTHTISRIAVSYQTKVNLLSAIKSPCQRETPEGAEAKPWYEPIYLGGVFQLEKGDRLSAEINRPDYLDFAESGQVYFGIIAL
molecule,measurement,setting,value
"mFLINT: mature FLINT without leader peptide (FIG. 3), soluble TNFR superfamily member, made according to Examples 8 and 9 (protein, glycosylated) VAETPTYPWRDAETGERLVCAQCPPGTFVQRPCRRDSPTTCGPCPPRHYTQFWNYLERCRYCNVLCGEREEEARACHATHNRACRCRTGFFAHAGFCLEHASCPPGAGVIAPGTPSQNTQCQPCPPGTFSASSSSSEQCQPHRNCTALGLALNVPGSSSHDTLCTSCTGFPLSTRVPGAEECERAVIDFVAFQDISIKRLQRLLQALEAPEGWGPTPRAGRAALQLKLRRRLTELLGAQDGALLVRLLQALRVARMPGLERSVRERFLPVH",binding in dot blot,TNFα,No appreciable binding
same,survival of mice,BALB/c mice; administered 2 hours before LPS/GalN,100%
same,survival of mice,"BALB/c mice; administered 4 hours after LPS/GalN, survival at 48 hours",80%
same,animals survived to 48 hours,"BALB/c mice; FIG. 6, 50 ug mFLINT",about 70%
same,animals alive 48 hours after LPS/GalN,"BALB/c mice; FIG. 6, 400 ug i.p., 2 hours before LPS/GalN challenge",100%
same,survival,"BALB/c mice; FIG. 7, 1 ug iv, 4-hour post-LPS/GalN",about 2%
same,survival,"BALB/c mice; FIG. 7, 5 ug iv, 4-hour post-LPS/GalN",20%
same,survival,"BALB/c mice; FIG. 7, 10 ug iv, 4-hour post-LPS/GalN",40%
same,survival,"BALB/c mice; FIG. 7, 50 ug iv, 4-hour post-LPS/GalN",80%
same,survival,"BALB/c mice; FIG. 7, 100 μg mFLINT IP, 4 hours after LPS/GalN",80%
same,survival,"BALB/c mice; FIG. 7, 100 μg mFLINT iv, 4 hours after LPS/GalN",100%
same,"effect on survival, ip compared with iv","BALB/c mice; FIG. 7, 100 μg mFLINT, 12 or 2 hours before LPS/GalN",the same
same,animals survived,"BALB/c mice; IP 200 μg mFLINT, 2 hours post-challenge with 3 μg LPS",100%
same,animals survived,"BALB/c mice; IP 200 μg mFLINT, 6 hours post-challenge with 3 μg LPS",60%
same,animals survived,"BALB/c mice; IP, 4 hours post-challenge with 3 μg LPS (mFLINT 200 μg)",73%
same,binding in dot blot,TRAIL,No appreciable binding
same,binding in dot blot,FasL,bound to FasL specifically
same,binding in dot blot,TNFβ,No appreciable binding
same,CFU-GEMM colonies,"[1]; control 750, p<0.007","3,000 colonies/3×10^6 stimulated BM cells"
same,CFU-GM colonies,"[1]; control 8,000, p<0.039","15,000 colonies/3×10^6 stimulated BM cells"
same,CFU-E colonies,"[1]; control 15,000, p<0.003","33,000 colonies/3×10^6 stimulated BM cells"
same,binding in dot blot,TRANCE,No appreciable binding
same,day tumors reached a volume of 500 mm^3,B16 melanoma cells; 50 μg/injection iv once daily,19.3 ± 0.3 days
same,day tumors reached a volume of 1000 mm^3,B16 melanoma cells; 50 μg/injection iv once daily,23.0 ± 0.4 days
same,tumor growth delay,B16 melanoma cells; 50 μg/injection iv once daily,1.8 days
same,tumor volume after 20 days,"B16 melanoma cells; FIG. 8, 50 μg/injection iv, control approximately 1000 mm^3",approximately 730 mm^3
